In article PMC6666309:

Legend:
pro-cathepsin D [1] = molecular target: pro-cathepsin D (UniProt P07339)
pro-cathepsin D [2] = molecular target: pro-cathepsin D (UniProt P07339); remark: listed apart in the source
pro-cathepsin D [3] = molecular target: pro-cathepsin D (UniProt P07339); assay: MST

pro-cathepsin D, sequence (P07339 21-412): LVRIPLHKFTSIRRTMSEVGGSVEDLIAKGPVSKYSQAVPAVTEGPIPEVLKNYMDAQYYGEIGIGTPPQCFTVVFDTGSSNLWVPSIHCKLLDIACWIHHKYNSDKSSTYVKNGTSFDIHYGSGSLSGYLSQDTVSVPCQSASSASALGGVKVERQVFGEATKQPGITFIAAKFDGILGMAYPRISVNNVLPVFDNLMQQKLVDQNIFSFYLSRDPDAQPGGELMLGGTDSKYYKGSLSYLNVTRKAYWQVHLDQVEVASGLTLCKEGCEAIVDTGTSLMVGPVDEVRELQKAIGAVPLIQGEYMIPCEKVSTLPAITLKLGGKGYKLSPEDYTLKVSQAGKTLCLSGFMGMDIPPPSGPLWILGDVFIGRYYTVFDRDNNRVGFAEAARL

| Substance | DSF - ΔTm of proCTSD with peptide CDE, pH 7.4 (pro-cathepsin D [1]) | Normalized Vmax of CTSD activity (20 nM proCTSD, 65 nM peptide CDE, pH 3.5) (pro-cathepsin D [1]) | DSF - Tm reduction of proCTSD with CDE at a 1:1 molar ratio (pro-cathepsin D [2]) | Kd (pro-cathepsin D [3]) | DSF - ΔTm of proCTSD (1 μM proCTSD with 2 μM peptide BAC, pH 7.4) (pro-cathepsin D [1]) | Normalized Vmax of CTSD activity (20 nM proCTSD, 65 nM peptide BAC, pH 3.5) (pro-cathepsin D [1]) |
| --- | --- | --- | --- | --- | --- | --- |
| multi-granulin domain peptide CDE (domain or fragment) | -2.78 °C | 1.84 | 2.75 °C | 0.13 µM | – | – |
| multi-granulin domain peptide BAC (domain or fragment) | – | – | – | 2.8 µM | -3.38 °C | 1.89 |
